Reference: patent US20160000865A1 (REGENTS OF THE UNIVERSITY OF MICHIGAN, published 2016)

B2: Endogenous Robo1 of mouse small intestinal crypts (receptor, UniProt O89026 20-1612, looked up)
chain: SRLRQEDFPPRIVEHPSDLIVSKGEPATLNCKAEGRPTPTIEWYKGGERVETDKDDPRSHRMLLPSGSLFFLRIVHGRKSRPDEGVYICVARNYLGEAVSHNASLEVAILRDDFRQNPSDVMVAVGEPAVMECQPPRGHPEPTISWKKDGSPLDDKDERITIRGGKLMITYTRKSDAGKYVCVGTNMVGERESEVAELTVLERPSFVKRPSNLAVTVDDSAEFKCEARGDPVPTVRWRKDDGELPKSRYEIRDDHTLKIRKVTAGDMGSYTCVAENMVGKAEASATLTVQEPPHFVVKPRDQVVALGRTVTFQCEATGNPQPAIFWRREGSQNLLFSYQPPQSSSRFSVSQTGDLTITNVQRSDVGYYICQTLNVAGSIITKAYLEVTDVIADRPPPVIRQGPVNQTVAVDGTLILSCVATGSPAPTILWRKDGVLVSTQDSRIKQLESGVLQIRYAKLGDTGRYTCTASTPSGEATWSAYIEVQEFGVPVQPPRPTDPNLIPSAPSKPEVTDVSKNTVTLSWQPNLNSGATPTSYIIEAFSHASGSSWQTAAENVKTETFAIKGLKPNAIYLFLVRAANAYGISDPSQISDPVKTQDVPPTSQGVDHKQVQRELGNVVLHLHNPTILSSSSVEVHWTVDQQSQYIQGYKILYRPSGASHGESEWLVFEVRTPTKNSVVIPDLRKGVNYEIKARPFFNEFQGADSEIKFAKTLEEAPSAPPRSVTVSKNDGNGTAILVTWQPPPEDTQNGMVQEYKVWCLGNETKYHINKTVDGSTFSVVIPSLVPGIRYSVEVAASTGAGPGVKSEPQFIQLDSHGNPVSPEDQVSLAQQISDVVRQPAFIAGIGAACWIILMVFSIWLYRHRKKRNGLTSTYAGIRKVPSFTFTPTVTYQRGGEAVSSGGRPGLLNISEPATQPWLADTWPNTGNNHNDCSINCCTAGNGNSDSNLTTYSRPADCIANYNNQLDNKQTNLMLPESTVYGDVDLSNKINEMKTFNSPNLKDGRFVNPSGQPTPYATTQLIQANLSNNMNNGAGDSSEKHWKPPGQQKPEVAPIQYNIMEQNKLNKDYRANDTIPPTIPYNQSYDQNTGGSYNSSDRGSSTSGSQGHKKGARTPKAPKQGGMNWADLLPPPPAHPPPHSNSEEYNMSVDESYDQEMPCPVPPAPMYLQQDELQEEEDERGPTPPVRGAASSPAAVSYSHQSTATLTPSPQEELQPMLQDCPEDLGHMPHPPDRRRQPVSPPPPPRPISPPHTYGYISGPLVSDMDTDAPEEEEDEADMEVAKMQTRRLLLRGLEQTPASSVGDLESSVTGSMINGWGSASEEDNISSGRSSVSSSDGSFFTDADFAQAVAAAAEYAGLKVARRQMQDAAGRRHFHASQCPRPTSPVSTDSNMSAVVIQKARPAKKQKHQPGHLRREAYADDLPPPPVPPPAIKSPTVQSKAQLEVRPVMVPKLASIEARTDRSSDRKGGSYKGREALDGRQVTDLRTNPSDPREAQEQPNDGKGRGTRQPKRDLPPAKTHLGQEDILPYCRPTFPTSNNPRDPSSSSSMSSRGSGSRQREQANVGRRNMAEMQVLGGFERGDENNEELEETES
notes: also called native Robo1

How the values were obtained:
[1] = biological target: B2; assay: co-immunoprecipitation from mouse intestinal crypt lysates, immunoblot
Method: 293 cells were co-transfected with the plasmids of Robo1 or Robo1-dCC3 and LRP6. Transfected Robo1 was immunoprecipitated by the anti-HA Ab, followed by immunoblotting for LRP6 (myc) and Robo1 (HA). (L) LRP6 interacts with CC3. 293 cells transfected with the LRP6 plasmid were incubated with rCC0/1, rCC2 and rCC3. After washing, transfected LRP6 was immunoprecipitated by the anti-HA Ab, followed by immunoblotting for rCC0/1, rCC2 and rCC3 (His) and LRP6 (myc). (M) LRP6 M3 binds to CC3. The glutathione-Sepharose beads were incubated with the GST-M1-3. After washing, they were incubated with rCC3, followed by immunoblotting for rCC3 (His) and rGST-M1-3. (N and O) Transfected Robo1 enhances LRP6 binding to LGR5. 293 cells were co-transfected with the plasmids of LGR5 and LRP6, in the presence or absence of the Robo1 plasmid (N). Alternatively, 293 cells were co-transfected with the plasmids of LGR5, LRP6 and Robo1, followed by infection with Ad-GFP or Ad-CC3 (0). Lysates of these transfectants were immunoprecipitate for LRP6 (myc) and immunoblotted for LGR5 (flag), LRP6 (myc) and Robo1 (HA), respectively. (P) Endogenous Robo1 promotes LRP6 association with LGR5. […]
This example describes Rspo1 binds to extracellular Robo1. […] Indeed, the intestinal expression of Rspo1 was detected in the tissue sections of adult small intestine (FIG. 14). […]

[2] = biological target: T1, Native LRP6 of mouse small intestinal crypts (mouse, UniProt O88572 20-1613); assay: immunoprecipitation of endogenous Robo1 from crypt lysates of C57 small intestines, immunoblot (FIG. 15H)
T1 construct: also called endogenous LRP6; endogenous Lrp6
T1 sequence (O88572 20-1613 limits assumed): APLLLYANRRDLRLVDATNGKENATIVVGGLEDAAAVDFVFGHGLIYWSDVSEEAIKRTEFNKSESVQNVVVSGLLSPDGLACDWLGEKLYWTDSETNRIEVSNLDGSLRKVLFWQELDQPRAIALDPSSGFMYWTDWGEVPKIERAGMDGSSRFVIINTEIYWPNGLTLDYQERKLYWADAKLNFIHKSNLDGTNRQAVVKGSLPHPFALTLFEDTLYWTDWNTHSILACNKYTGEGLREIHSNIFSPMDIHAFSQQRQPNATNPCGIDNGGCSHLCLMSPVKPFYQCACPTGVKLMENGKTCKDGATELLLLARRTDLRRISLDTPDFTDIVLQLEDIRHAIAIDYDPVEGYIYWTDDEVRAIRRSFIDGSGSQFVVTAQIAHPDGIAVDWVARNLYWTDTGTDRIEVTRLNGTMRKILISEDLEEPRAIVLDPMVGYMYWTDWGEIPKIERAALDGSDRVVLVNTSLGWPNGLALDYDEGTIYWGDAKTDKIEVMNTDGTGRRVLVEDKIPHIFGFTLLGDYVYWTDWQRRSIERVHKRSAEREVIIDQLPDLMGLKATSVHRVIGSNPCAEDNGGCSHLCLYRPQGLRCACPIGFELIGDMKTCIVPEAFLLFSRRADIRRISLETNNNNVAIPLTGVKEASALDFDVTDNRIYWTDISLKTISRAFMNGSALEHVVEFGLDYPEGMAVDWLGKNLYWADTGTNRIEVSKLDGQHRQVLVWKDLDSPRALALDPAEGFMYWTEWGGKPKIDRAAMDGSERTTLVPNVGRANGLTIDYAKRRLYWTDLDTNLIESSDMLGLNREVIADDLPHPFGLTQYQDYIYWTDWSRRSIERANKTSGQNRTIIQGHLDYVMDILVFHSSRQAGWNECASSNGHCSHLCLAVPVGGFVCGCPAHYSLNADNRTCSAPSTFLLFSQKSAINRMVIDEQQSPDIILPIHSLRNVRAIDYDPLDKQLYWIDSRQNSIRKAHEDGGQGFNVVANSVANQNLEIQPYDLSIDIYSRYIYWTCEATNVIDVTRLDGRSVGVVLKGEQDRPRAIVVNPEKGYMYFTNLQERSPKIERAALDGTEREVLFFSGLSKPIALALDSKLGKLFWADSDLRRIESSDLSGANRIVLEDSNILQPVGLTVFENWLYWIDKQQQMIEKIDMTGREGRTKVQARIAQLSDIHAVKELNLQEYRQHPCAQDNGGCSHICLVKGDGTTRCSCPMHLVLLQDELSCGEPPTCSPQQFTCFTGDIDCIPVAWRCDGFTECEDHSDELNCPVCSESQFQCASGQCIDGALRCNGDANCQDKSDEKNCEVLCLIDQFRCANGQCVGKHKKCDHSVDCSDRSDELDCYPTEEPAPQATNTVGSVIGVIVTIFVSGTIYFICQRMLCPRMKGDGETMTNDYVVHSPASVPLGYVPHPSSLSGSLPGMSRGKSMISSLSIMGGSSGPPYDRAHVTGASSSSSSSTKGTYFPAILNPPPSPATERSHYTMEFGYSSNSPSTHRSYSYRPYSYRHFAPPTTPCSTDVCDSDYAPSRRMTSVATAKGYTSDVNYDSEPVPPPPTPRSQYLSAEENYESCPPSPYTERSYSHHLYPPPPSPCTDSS

[3] = biological target: T2, Recombinant human Robo1 encoding the extracellular five Ig-like domains fused with the Fc domains of human … (human, UniProt Q9Y6N7 26-540; P01857 99-330 = IgG part); assay: Protein A bead pulldown, immunoblot for His
T2 construct: domain: extracellular five Ig domains (1-1621 bp);domain: Fc domains of human IgG1; also called Robo1-Fc; rRobo1-Fc
T2 sequence (Q9Y6N7 other isoform, or with tags, fused parts or gaps limits assumed): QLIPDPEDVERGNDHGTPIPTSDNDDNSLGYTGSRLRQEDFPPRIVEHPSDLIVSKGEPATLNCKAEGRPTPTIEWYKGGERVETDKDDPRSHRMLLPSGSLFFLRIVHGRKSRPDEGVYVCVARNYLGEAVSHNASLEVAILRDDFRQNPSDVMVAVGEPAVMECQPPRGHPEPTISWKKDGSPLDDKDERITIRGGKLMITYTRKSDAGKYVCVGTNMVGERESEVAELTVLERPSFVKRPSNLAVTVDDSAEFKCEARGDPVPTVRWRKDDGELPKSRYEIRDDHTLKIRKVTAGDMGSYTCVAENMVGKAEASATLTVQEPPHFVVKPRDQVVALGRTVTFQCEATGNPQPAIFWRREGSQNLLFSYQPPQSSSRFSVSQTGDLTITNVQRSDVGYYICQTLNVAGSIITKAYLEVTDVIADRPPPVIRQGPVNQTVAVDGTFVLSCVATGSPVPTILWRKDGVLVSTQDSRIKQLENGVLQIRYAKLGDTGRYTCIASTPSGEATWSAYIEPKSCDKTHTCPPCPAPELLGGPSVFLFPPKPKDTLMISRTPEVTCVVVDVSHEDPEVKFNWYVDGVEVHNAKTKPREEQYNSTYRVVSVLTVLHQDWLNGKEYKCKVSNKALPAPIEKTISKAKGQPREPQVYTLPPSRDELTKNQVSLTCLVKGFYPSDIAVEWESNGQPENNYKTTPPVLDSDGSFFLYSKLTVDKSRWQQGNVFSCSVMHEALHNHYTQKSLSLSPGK
Method: (§1) To confirm our initial findings, various deletion mutants of Robo1 fused with hemagglutin (HA) tag were employed (FIG. 15B) (see, e.g., Wong, K., et al., (2001) Cell 107, 209-221). Recombinant human Rspo1 fused with 6-His (His) tag expressed in Sf9 insect cells (rRspo1; FIG. 15C and FIG. 17B) were also purified. […] Following incubation, immunoprecipitation was performed by the anti-HA Ab, followed by immunoblotting with the Abs for rRspo1 (His) and Robo1 (HA). […] Compared to human IgG (hIgG) bound Protein A (Pro-A) beads, recombinant Robo1-Fc chimera (rRobo1-Fc; FIG. 17C) bound Pro-A beads precipitated rRspo1 (His; FIG. 15E and FIG. 16C). Additionally, rRobo1-Fc bound Pro-A beads precipitated purified recombinant Rspo1-N (rRspo1-N), but not recombinant Rspo1-C (rRspo1-C; FIGS. 15C and F and FIGS. 16D and 17B). To determine which extracellular Ig domains of Robo1 could recognize Rspo1, recombinant extracellular Ig domains 1-5 of Robo1 fused with glutathione S-transferase were constructed, expressed and purified (GST-Ig1-5; FIG. 15B and FIG. 16D).

[4] = biological target: T3, Recombinant human Rspo1 fused with 6-His (His) tag expressed in Sf9 insect cells (human, UniProt Q2MKA7 21-263); assay: glutathione-Sepharose pulldown, immunoblot
T3 construct: Baculovirus expression; also called rRspo1; R-spondin 1; not shown: 6-His tag
Method: as §1
For the pulldown assay, 3 μg of the appropriate purified GST-tagged fusion protein and isolated His-tagged fusion protein were incubated with 20 μl glutathione Sepharose beads (GE Healthcare Biosciences) in PBS containing 1% BSA at 4° C. for 2 h. […]

B1: Native Rspo1 of mouse small intestinal crypts (ligand, UniProt Q9Z132 21-265, looked up)
chain: SRGIKGKRQRRISAEGSQACAKGCELCSEVNGCLKCSPKLFILLERNDIRQVGVCLPSCPPGYFDARNPDMNKCIKCKIEHCEACFSHNFCTKCQEALYLHKGRCYPACPEGSTAANSTMECGSPAQCEMSEWSPWGPCSKKRKLCGFRKGSEERTRRVLHAPGGDHTTCSDTKETRKCTVRRTPCPEGQKRRKGGQGRRENANRHPARKNSKEPRSNSRRHKGQQQPQPGTTGPLTSVGPTWAQ
binding result [1]: binds

B2
binding result [2]: binds

B3: Carboxyl-terminal segment of Rspo1 including one TSR repeat, fused with 6-His tag (ligand, human, UniProt Q2MKA7 147-263, looked up)
chain: QCEMSEWSPWGPCSKKQQLCGFRRGSEERTRRVLHAPVGDHAACSDTKETRRCTVRRVPCPEGQKRRKGGQGRRENANRNLARKESKEAGAGSRRRKGQQQQQQQGTVGPLTSAGPA
notes: domain: carboxyl-terminus of Rspo1 containing one TSR repeat; also called rRspo1-C; Rspo1-C; not shown: 6-His tag of the PETM vector
binding result [3]: no binding

B4: Extracellular Ig2 domain of Robo1 fused with GST (other, human, UniProt Q9Y6N7 170-257, looked up)
chain: DDFRQNPSDVMVAVGEPAVMECQPPRGHPEPTISWKKDGSPLDDKDERITIRGGKLMITYTRKSDAGKYVCVGTNMVGERESEVAELT
notes: domain: extracellular Ig2 domain; also called GST-Ig2; not shown: glutathione S-transferase of the PGEX6P1 vector
binding result [4]: no binding

B5: Extracellular Ig5 domain of Robo1 fused with GST (other, human, UniProt Q9Y6N7 455-541, looked up)
chain: PVIRQGPVNQTVAVDGTFVLSCVATGSPVPTILWRKDGVLVSTQDSRIKQLENGVLQIRYAKLGDTGRYTCIASTPSGEATWSAYIE
notes: domain: extracellular Ig5 domain; also called GST-Ig5; not shown: glutathione S-transferase of the PGEX6P1 vector
binding result [4]: no binding
